Columns and labels:
[1] = target: human ρ1 GABAC receptor (human) (UniProt P24046); assay: flow cytometry on SHp5-ρ1 cells, antibody at 1/1,000 dilution
[2] = target: human ρ1 GABAC receptor (human) (UniProt P24046); assay: flow cytometry on SHp5-ρ1 cells, antibody at 1/25 or 1/50 dilution

UniProt P24046, sequence (P24046 22-479): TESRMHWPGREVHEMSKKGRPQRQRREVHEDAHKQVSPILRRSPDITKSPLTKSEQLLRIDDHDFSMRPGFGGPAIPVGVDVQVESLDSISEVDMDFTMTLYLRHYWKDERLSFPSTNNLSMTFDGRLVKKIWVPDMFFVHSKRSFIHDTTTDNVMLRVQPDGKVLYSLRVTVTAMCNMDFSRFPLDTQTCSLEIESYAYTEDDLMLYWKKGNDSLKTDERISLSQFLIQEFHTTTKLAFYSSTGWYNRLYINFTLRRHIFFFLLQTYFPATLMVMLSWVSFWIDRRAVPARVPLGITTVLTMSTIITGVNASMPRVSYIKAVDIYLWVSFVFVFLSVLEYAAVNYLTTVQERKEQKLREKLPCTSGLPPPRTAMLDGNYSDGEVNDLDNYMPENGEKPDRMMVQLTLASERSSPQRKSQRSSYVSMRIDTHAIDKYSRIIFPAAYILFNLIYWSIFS

percent positive cells [1]: 47%
percent positive cells [2]: 63%
Substance: affinity-purified GABAC Ab N-14 (antibody)
